*1 amine or outer side, *2 acyl side, *3 side chain or, on linkers, in order; H or OH if unused. Primed or numbered codes have the meaning given here. [ ]: non-standard residue; d: D form. F4bcpA = 3-[4-[(S)-2-amino-2-carboxyethyl]phenyl]bicyclo[1.1.1]pentane-1-carboxylic acid, O=C([C@H](Cc1ccc(C23CC(C(=O)[*:3])(C2)C3)cc1)N[*:1])[*:2]; aMeNle = (S)-2-amino-2-methylhexanoic acid (alpha-methyl-norleucine), CCCC[C@](C)(N[*:1])C(=O)[*:2]; dDabMe3 = [(R)-3-amino-3-carboxypropyl]-trimethylazanium, C[N+](C)(C)CC[C@@H](N[*:1])C(=O)[*:2]; F4pcCCA = (1R,4s)-4-(4-((S)-2-amino-2-carboxyethyl)phenyl)cyclohexane-1-carboxylic acid; Phe(4-(trans-4-COOH-cHex)) = N[C@@H](Cc1ccc([C@H]2CC[C@H](C(=O)O)CC2)cc1)C(=O)O; Phe(4-(4-Ac-piperazinyl)) = CC(=O)N1CCN(c2ccc(C[C@H](N)C(=O)O)cc2)CC1; Pro(trans-4-NH2) = O=C([C@@H]1C[C@@H](N[*:3])CN1[*:1])[*:2]; Bip(4'-COOH) = N[C@@H](Cc1ccc(-c2ccc(C(=O)O)cc2)cc1)C(=O)O; 1Nal(3S-Me) = C[C@@H](c1cccc2ccccc12)[C@H](N)C(=O)O; Ala(indolin-1-yl) = N[C@@H](CN1CCc2ccccc21)C(=O)O; Phe(4-COOH) = N[C@@H](Cc1ccc(C(=O)O)cc1)C(=O)O; Trp(6-F) = N[C@@H](Cc1c[nH]c2cc(F)ccc12)C(=O)O; αMeNle = CCCC[C@](C)(N[*:1])C(=O)[*:2]; hTyr = N[C@@H](CCc1ccc(O)cc1)C(=O)O; hCha = N[C@@H](CCC1CCCCC1)C(=O)O; 4Pal = N[C@@H](Cc1ccncc1)C(=O)O; Cha = N[C@@H](CC1CCCCC1)C(=O)O; dαMeDab′ = not defined here; dDab = NCC[C@@H](N)C(=O)O; Nle = CCCC[C@H](N)C(=O)O; dNMeA = CN[C@H](C)C(=O)O
What follows are binders tested against Recombinant human IL-1β (BioLegend 579404) (human, UniProt P01584 117-269) (assay: cell-based or functional assay).

Binder | MRC5 IC50 [nM]
cyclo([Phe(4-(trans-4-COOH-cHex))]W[Phe(4-COOH)]G[Pro(trans-4-NH2)][1Nal(3S-Me)]D[dNMeA]G[Bip(4'-COOH)][4Pal]G[dDab][hCha]) (SMILES C[C@@H]1C(=O)NCC(=O)N[C@@H](Cc2ccc(-c3ccc(C(=O)O)cc3)cc2)C(=O)N[C@@H](Cc2ccncc2)C(=O)NCC(=O)N[C@H](CCN)C(=O)N[C@@H](CCC2CCCCC2)C(=O)N[C@@H](Cc2ccc([C@H]3CC[C@H](C(=O)O)CC3)cc2)C(=O)N[C@@H](Cc2c[nH]c3ccccc23)C(=O)N[C@@H](Cc2ccc(C(=O)O)cc2)C(=O)NCC(=O)N2C[C@H](N)C[C@H]2C(=O)N[C@@H]([C@@H](C)c2cccc3ccccc23)C(=O)N[C@@H](CC(=O)O)C(=O)N1C) [SEQ ID NO: 196 (Example No. 196)] | 0.03
cyclo([Phe(4-(trans-4-COOH-cHex))]W[Phe(4-COOH)]G[Pro(trans-4-NH2)][1Nal(3S-Me)]D[dNMeA]G[Bip(4'-COOH)][4Pal]G[dDab][αMeNle]) (SMILES CCCC[C@]1(C)NC(=O)[C@@H](CCN)NC(=O)CNC(=O)[C@H](Cc2ccncc2)NC(=O)[C@H](Cc2ccc(-c3ccc(C(=O)O)cc3)cc2)NC(=O)CNC(=O)[C@@H](C)N(C)C(=O)[C@H](CC(=O)O)NC(=O)[C@H]([C@@H](C)c2cccc3ccccc23)NC(=O)[C@@H]2C[C@@H](N)CN2C(=O)CNC(=O)[C@H](Cc2ccc(C(=O)O)cc2)NC(=O)[C@H](Cc2c[nH]c3ccccc23)NC(=O)[C@H](Cc2ccc([C@H]3CC[C@H](C(=O)O)CC3)cc2)NC1=O) [SEQ ID NO: 195 (Example No. 195)] | 0.022
cyclo([Phe(4-(trans-4-COOH-cHex))][Trp(6-F)][Phe(4-COOH)]G[Pro(trans-4-NH2)][1Nal(3S-Me)]D[dNMeA]G[Bip(4'-COOH)][4Pal]S[dDabMe3][hCha]) (SMILES C[C@@H]1C(=O)NCC(=O)N[C@@H](Cc2ccc(-c3ccc(C(=O)O)cc3)cc2)C(=O)N[C@@H](Cc2ccncc2)C(=O)N[C@@H](CO)C(=O)N[C@H](CC[N+](C)(C)C)C(=O)N[C@@H](CCC2CCCCC2)C(=O)N[C@@H](Cc2ccc([C@H]3CC[C@H](C(=O)O)CC3)cc2)C(=O)N[C@@H](Cc2c[nH]c3cc(F)ccc23)C(=O)N[C@@H](Cc2ccc(C(=O)O)cc2)C(=O)NCC(=O)N2C[C@H](N)C[C@H]2C(=O)N[C@@H]([C@@H](C)c2cccc3ccccc23)C(=O)N[C@@H](CC(=O)O)C(=O)N1C) [SEQ ID NO: 194 (Example No. 194)] | 0.015
cyclo([F4bcpA]W[Phe(4-COOH)]G[Pro(trans-4-NH2)][1Nal(3S-Me)]D[dNMeA]G[Bip(4'-COOH)][Cha]G[dDab][hTyr]) (SMILES C[C@@H]1C(=O)NCC(=O)N[C@@H](Cc2ccc(-c3ccc(C(=O)O)cc3)cc2)C(=O)N[C@@H](CC2CCCCC2)C(=O)NCC(=O)N[C@H](CCN)C(=O)N[C@@H](CCc2ccc(O)cc2)C(=O)N[C@@H](Cc2ccc(C34CC(C(=O)O)(C3)C4)cc2)C(=O)N[C@@H](Cc2c[nH]c3ccccc23)C(=O)N[C@@H](Cc2ccc(C(=O)O)cc2)C(=O)NCC(=O)N2C[C@H](N)C[C@H]2C(=O)N[C@@H]([C@@H](C)c2cccc3ccccc23)C(=O)N[C@@H](CC(=O)O)C(=O)N1C) [SEQ ID NO: 190 (Example No. 190)] | 0.018
cyclo([Phe(4-(trans-4-COOH-cHex))][Trp(6-F)][Phe(4-COOH)]G[Pro(trans-4-NH2)][1Nal(3S-Me)]D[dNMeA]G[Bip(4'-COOH)][4Pal]G[dDab][hCha]) (SMILES C[C@@H]1C(=O)NCC(=O)N[C@@H](Cc2ccc(-c3ccc(C(=O)O)cc3)cc2)C(=O)N[C@@H](Cc2ccncc2)C(=O)NCC(=O)N[C@H](CCN)C(=O)N[C@@H](CCC2CCCCC2)C(=O)N[C@@H](Cc2ccc([C@H]3CC[C@H](C(=O)O)CC3)cc2)C(=O)N[C@@H](Cc2c[nH]c3cc(F)ccc23)C(=O)N[C@@H](Cc2ccc(C(=O)O)cc2)C(=O)NCC(=O)N2C[C@H](N)C[C@H]2C(=O)N[C@@H]([C@@H](C)c2cccc3ccccc23)C(=O)N[C@@H](CC(=O)O)C(=O)N1C) [SEQ ID NO: 192 (Example No. 192)] | 0.015
cyclo([Phe(4-(trans-4-COOH-cHex))][Trp(6-F)][Phe(4-COOH)]G[Pro(trans-4-NH2)][1Nal(3S-Me)]D[dNMeA]G[Bip(4'-COOH)][4Pal]S[dDab][hCha]) (SMILES C[C@@H]1C(=O)NCC(=O)N[C@@H](Cc2ccc(-c3ccc(C(=O)O)cc3)cc2)C(=O)N[C@@H](Cc2ccncc2)C(=O)N[C@@H](CO)C(=O)N[C@H](CCN)C(=O)N[C@@H](CCC2CCCCC2)C(=O)N[C@@H](Cc2ccc([C@H]3CC[C@H](C(=O)O)CC3)cc2)C(=O)N[C@@H](Cc2c[nH]c3cc(F)ccc23)C(=O)N[C@@H](Cc2ccc(C(=O)O)cc2)C(=O)NCC(=O)N2C[C@H](N)C[C@H]2C(=O)N[C@@H]([C@@H](C)c2cccc3ccccc23)C(=O)N[C@@H](CC(=O)O)C(=O)N1C) [SEQ ID NO: 193 (Example No. 193)] | 0.012
cyclo([F4pcCCA]W[Phe(4-COOH)]G[Pro(trans-4-NH2)][1Nal(3S-Me)]D[dNMeA]G[Bip(4'-COOH)][4Pal]G[dDab][hCha]) [SEQ ID NO: 191 (Example No. 191)] | 0.019
cyclo([Phe(4-(trans-4-COOH-cHex))]W[Phe(4-COOH)]G[Pro(trans-4-NH2)][1Nal(3S-Me)]D[dNMeA]G[Bip(4'-COOH)][4Pal]G[dDab][Nle]) (SMILES CCCC[C@@H]1NC(=O)[C@@H](CCN)NC(=O)CNC(=O)[C@H](Cc2ccncc2)NC(=O)[C@H](Cc2ccc(-c3ccc(C(=O)O)cc3)cc2)NC(=O)CNC(=O)[C@@H](C)N(C)C(=O)[C@H](CC(=O)O)NC(=O)[C@H]([C@@H](C)c2cccc3ccccc23)NC(=O)[C@@H]2C[C@@H](N)CN2C(=O)CNC(=O)[C@H](Cc2ccc(C(=O)O)cc2)NC(=O)[C@H](Cc2c[nH]c3ccccc23)NC(=O)[C@H](Cc2ccc([C@H]3CC[C@H](C(=O)O)CC3)cc2)NC1=O) [SEQ ID NO: 197 (Example No. 197)] | 0.024

Second part, the binder after the results:

MRC5 IC50 [nM] | Binder
0.021 | cyclo([Phe(4-(4-Ac-piperazinyl))]W[Phe(4-COOH)]G[Pro(trans-4-NH2)][1Nal(3S-Me)]D[dNMeA]G[Bip(4'-COOH)][Ala(indolin-1-yl)]G[dDab][hTyr]) (SMILES CC(=O)N1CCN(c2ccc(C[C@@H]3NC(=O)[C@H](CCc4ccc(O)cc4)NC(=O)[C@@H](CCN)NC(=O)CNC(=O)[C@H](CN4CCc5ccccc54)NC(=O)[C@H](Cc4ccc(-c5ccc(C(=O)O)cc5)cc4)NC(=O)CNC(=O)[C@@H](C)N(C)C(=O)[C@H](CC(=O)O)NC(=O)[C@H]([C@@H](C)c4cccc5ccccc45)NC(=O)[C@@H]4C[C@@H](N)CN4C(=O)CNC(=O)[C@H](Cc4ccc(C(=O)O)cc4)NC(=O)[C@H](Cc4c[nH]c5ccccc45)NC3=O)cc2)CC1) [SEQ ID NO: 198 (Example No. 198)]
0.03 | cyclo([Phe(4-(4-Ac-piperazinyl))]W[Phe(4-COOH)]G[Pro(trans-4-NH2)][1Nal(3S-Me)]D[dNMeA]G[Bip(4'-COOH)][4Pal]G[dDab][hCha]) (SMILES CC(=O)N1CCN(c2ccc(C[C@@H]3NC(=O)[C@H](CCC4CCCCC4)NC(=O)[C@@H](CCN)NC(=O)CNC(=O)[C@H](Cc4ccncc4)NC(=O)[C@H](Cc4ccc(-c5ccc(C(=O)O)cc5)cc4)NC(=O)CNC(=O)[C@@H](C)N(C)C(=O)[C@H](CC(=O)O)NC(=O)[C@H]([C@@H](C)c4cccc5ccccc45)NC(=O)[C@@H]4C[C@@H](N)CN4C(=O)CNC(=O)[C@H](Cc4ccc(C(=O)O)cc4)NC(=O)[C@H](Cc4c[nH]c5ccccc45)NC3=O)cc2)CC1) [SEQ ID NO: 201 (Example No. 201)]
0.034 | cyclo([Phe(4-(4-Ac-piperazinyl))]W[Phe(4-COOH)]G[Pro(trans-4-NH2)][1Nal(3S-Me)]D[dNMeA]G[Bip(4'-COOH)][4Pal]G[dDab][aMeNle]) (SMILES CCCC[C@]1(C)NC(=O)[C@@H](CCN)NC(=O)CNC(=O)[C@H](Cc2ccncc2)NC(=O)[C@H](Cc2ccc(-c3ccc(C(=O)O)cc3)cc2)NC(=O)CNC(=O)[C@@H](C)N(C)C(=O)[C@H](CC(=O)O)NC(=O)[C@H]([C@@H](C)c2cccc3ccccc23)NC(=O)[C@@H]2C[C@@H](N)CN2C(=O)CNC(=O)[C@H](Cc2ccc(C(=O)O)cc2)NC(=O)[C@H](Cc2c[nH]c3ccccc23)NC(=O)[C@H](Cc2ccc(N3CCN(C(C)=O)CC3)cc2)NC1=O) [SEQ ID NO: 200 (Example No. 200)]
0.029 | cyclo([Phe(4-(4-Ac-piperazinyl))]W[Phe(4-COOH)]G[Pro(trans-4-NH2)][1Nal(3S-Me)]D[dNMeA]G[Bip(4'-COOH)][Cha]G[dDab][hTyr]) (SMILES CC(=O)N1CCN(c2ccc(C[C@@H]3NC(=O)[C@H](CCc4ccc(O)cc4)NC(=O)[C@@H](CCN)NC(=O)CNC(=O)[C@H](CC4CCCCC4)NC(=O)[C@H](Cc4ccc(-c5ccc(C(=O)O)cc5)cc4)NC(=O)CNC(=O)[C@@H](C)N(C)C(=O)[C@H](CC(=O)O)NC(=O)[C@H]([C@@H](C)c4cccc5ccccc45)NC(=O)[C@@H]4C[C@@H](N)CN4C(=O)CNC(=O)[C@H](Cc4ccc(C(=O)O)cc4)NC(=O)[C@H](Cc4c[nH]c5ccccc45)NC3=O)cc2)CC1) [SEQ ID NO: 202 (Example No. 202)]
0.024 | cyclo([Phe(4-(4-Ac-piperazinyl))]W[Phe(4-COOH)]G[Pro(trans-4-NH2)][1Nal(3S-Me)]D[dNMeA]G[Bip(4'-COOH)][4Pal]G[dαMeDab′][hCha]) [SEQ ID NO: 199 (Example No. 199)]
